Reference: the supplement of paper PMC10567573

B1: HDAC6 (parent)
chain: DLMETTQYMNEGELRVLADTYDSV

Variants of: B1
Assay: protein stability index of a GFP-peptide fusion (GPS, HEK-293T) (PSI 1-6); higher = more stable
Conditions: c terminus: a fixed tail appended
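Also: lentivirally expressed fusions sorted by FACS into six bins by GFP to DsRed ratio, PSI derived from sequencing read proportions per bin multiplied by bin number.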

| Variant | protein stability index |
| --- | --- |
| DLMETTQYMNEGELGVLADTYDSV [R15G] | 3.24 |
| DLMETTQYMNEGELPVLADTYDSV [R15P] | 4.61 |
| DLMETTQYMNEGELKVLADTYDSV [R15K] | 2.27 |
| DLMETTQYMNEGELFVLADTYDSV [R15F] | 2.64 |
| DLMETTQYMNEGELEVLADTYDSV [R15E] | 2.01 |
| DLMETTQYMNEGELNVLADTYDSV [R15N] | 2.67 |
| DLMETTQYMNEGELHVLADTYDSV [R15H] | 2.03 |
| DLMETTQYMNEGELVVLADTYDSV [R15V] | 2.37 |
| DLMETTQYMNEGELYVLADTYDSV [R15Y] | 2.39 |
| DLMETTQYMNEGELLVLADTYDSV [R15L] | 1.5 |
| DLMETTQYMNEGELQVLADTYDSV [R15Q] | 1.76 |
| DLMETTQYMNEGELMVLADTYDSV [R15M] | 1.89 |
| DLMETTQYMNEGELDVLADTYDSV [R15D] | 3.8 |
| DLMETTQYMNEGELSVLADTYDSV [R15S] | 2.09 |
| DLMETTQYMNEGELCVLADTYDSV [R15C] | 1.5 |
| DLMETTQYMNEGELIVLADTYDSV [R15I] | 2.2 |
| DLMETTQYMNEGELAVLADTYDSV [R15A] | 1.77 |
| DLMETTQYMNEGELTVLADTYDSV [R15T] | 2.58 |
| DLMETTQYMNEGEIRVLADTYDSV [L14I] | 2.26 |
| DLMETTQYMNEGEGRVLADTYDSV [L14G] | 2.92 |
| DLMETTQYMNEGEERVLADTYDSV [L14E] | 2.07 |
| DLMETTQYMNEGEPRVLADTYDSV [L14P] | 4.29 |
| DLMETTQYMNEGEKRVLADTYDSV [L14K] | 2.96 |
| DLMETTQYMNEGEMRVLADTYDSV [L14M] | 1.62 |

| Variant | protein stability index |
| --- | --- |
| DLMETTQYMNEGEHRVLADTYDSV [L14H] | 2.29 |
| DLMETTQYMNEGENRVLADTYDSV [L14N] | 3.03 |
| DLMETTQYMNEGESRVLADTYDSV [L14S] | 2.21 |
| DLMETTQYMNEGECRVLADTYDSV [L14C] | 1.97 |
| DLMETTQYMNEGEARVLADTYDSV [L14A] | 2.11 |
| DLMETTQYMNEGEYRVLADTYDSV [L14Y] | 1.87 |
| DLMETTQYMNEGEFRVLADTYDSV [L14F] | 1.74 |
| DLMETTQYMNEGEWRVLADTYDSV [L14W] | 2.48 |
| DLMETTQYMNEGEVRVLADTYDSV [L14V] | 2.83 |
| DLMETTQYMNEGEDRVLADTYDSV [L14D] | 2.32 |
| DLMETTQYMNEGEQRVLADTYDSV [L14Q] | 2.28 |
| DLMETTQYMNEGETRVLADTYDSV [L14T] | 3.56 |
| DLMETTQYMNEGELRVLWDTYDSV [A18W] | 1.7 |
| DLMETTQYMNEGELRVLNDTYDSV [A18N] | 1.65 |
| DLMETTQYMNEGELRVLGDTYDSV [A18G] | 2.86 |
| DLMETTQYMNEGELRVLVDTYDSV [A18V] | 2.4 |
| DLMETTQYMNEGELRVLYDTYDSV [A18Y] | 1.87 |
| DLMETTQYMNEGELRVLKDTYDSV [A18K] | 2.18 |
| DLMETTQYMNEGELRVLRDTYDSV [A18R] | 2.12 |
| DLMETTQYMNEGELRVLLDTYDSV [A18L] | 1.75 |
| DLMETTQYMNEGELRVLDDTYDSV [A18D] | 2.82 |
| DLMETTQYMNEGELRVLPDTYDSV [A18P] | 3.97 |
| DLMETTQYMNEGELRVLCDTYDSV [A18C] | 2.47 |
| DLMETTQYMNEGELRVLHDTYDSV [A18H] | 2.06 |

| Variant | protein stability index |
| --- | --- |
| DLMETTQYMNEGELRVLMDTYDSV [A18M] | 1.12 |
| DLMETTQYMNEGELRVLTDTYDSV [A18T] | 1.94 |
| DLMETTQYMNEGELRVLIDTYDSV [A18I] | 1.83 |
| DLMETTQYMNEGELRVLFDTYDSV [A18F] | 1.86 |
| DLMETTQYMNEGELRVLSDTYDSV [A18S] | 2.09 |
| DLMETTQYMNEGELRVLEDTYDSV [A18E] | 2.11 |
| DLMETTQYMNEGELRVLQDTYDSV [A18Q] | 1.62 |
| DLMETTQYMNEGELRVLAGTYDSV [D19G] | 2.6 |
| DLMETTQYMNEGELRVLALTYDSV [D19L] | 1.64 |
| DLMETTQYMNEGELRVLARTYDSV [D19R] | 2.56 |
| DLMETTQYMNEGELRVLAPTYDSV [D19P] | 2.67 |
| DLMETTQYMNEGELRVLAHTYDSV [D19H] | 2.42 |
| DLMETTQYMNEGELRVLASTYDSV [D19S] | 2.12 |
| DLMETTQYMNEGELRVLAITYDSV [D19I] | 2.55 |
| DLMETTQYMNEGELRVLAFTYDSV [D19F] | 2.78 |
| DLMETTQYMNEGELRVLATTYDSV [D19T] | 1.83 |
| DLMETTQYMNEGELRVLAQTYDSV [D19Q] | 1.92 |
| DLMETTQYMNEGELRVLANTYDSV [D19N] | 1.79 |
| DLMETTQYMNEGELRVLAYTYDSV [D19Y] | 1.44 |
| DLMETTQYMNEGELRVLAKTYDSV [D19K] | 2.52 |
| DLMETTQYMNEGELRVLAETYDSV [D19E] | 2.03 |
| DLMETTQYMNVGELRVLADTYDSV [E11V] | 2.45 |
| DLMETTQYMNYGELRVLADTYDSV [E11Y] | 2.43 |
| DLMETTQYMNTGELRVLADTYDSV [E11T] | 2.9 |

| Variant | protein stability index |
| --- | --- |
| DLMETTQYMNWGELRVLADTYDSV [E11W] | 1.89 |
| DLMETTQYMNSGELRVLADTYDSV [E11S] | 2.95 |
| DLMETTQYMNERELRVLADTYDSV [G12R] | 3.71 |
| DLMETTQYMNEWELRVLADTYDSV [G12W] | 2.03 |
| DLMETTQYMNEAELRVLADTYDSV [G12A] | 2.33 |
| DLMETTQYMNENELRVLADTYDSV [G12N] | 4.08 |
| DLMETTQYMNEFELRVLADTYDSV [G12F] | 2.85 |
| DLMETTQYMNEIELRVLADTYDSV [G12I] | 2.9 |
| DLMETTQYMNECELRVLADTYDSV [G12C] | 3.07 |
| DLMETTQYMNEHELRVLADTYDSV [G12H] | 3.46 |
| DLMETTQYMNEYELRVLADTYDSV [G12Y] | 2.62 |
| DLMETTQYMNEDELRVLADTYDSV [G12D] | 4.79 |
| DLMETTQYMNEVELRVLADTYDSV [G12V] | 2.85 |
| DLMETTQYMNEEELRVLADTYDSV [G12E] | 4.82 |
| DLMETTQYMNESELRVLADTYDSV [G12S] | 3.58 |
| DLMETTQYMNEPELRVLADTYDSV [G12P] | 4.74 |
| DLMETTQYMNEQELRVLADTYDSV [G12Q] | 4.16 |
| DLMETTQYMNEMELRVLADTYDSV [G12M] | 3.18 |
| DLMETTQYMNETELRVLADTYDSV [G12T] | 3.49 |
| DLMETTQYMNELELRVLADTYDSV [G12L] | 3.56 |
| DLMETTQYMNEKELRVLADTYDSV [G12K] | 3.87 |
| DLMETTQYMNEGPLRVLADTYDSV [E13P] | 3.74 |
